Experimental data taken from the supplement of paper PMC9112550, “Optimization of the antimicrobial peptide Bac7 by deep mutational scanning” (BMC Biology, 2022).

tested on: Escherichia coli TOP10; test: shrunken log2 fold change of peptide-encoding DNA abundance (4.5 h post-induction vs induction); higher = less antimicrobial activity (less host growth inhibition); settings: time post-induction: 4.5 h; library: site-saturation at positions 5, 18, 19, 20
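Further: peptides expressed intracellularly from a pBAD plasmid library in pooled LB shake-flask culture, induced with 0.3% L-arabinose, DNA abundance read by NGS, three biological replicates, DESeq2 with apeglm shrinkage.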

In order of rising “shrunken log2 fold change” value:
1. RRIRCRPPRLPRPRPRPFMHPRP  -1.01
2. RRIRCRPPRLPRPRPRPDMKPRP  -0.996
3. RRIRCRPPRLPRPRPRPFDCPRP  -0.95
4. RRIRCRPPRLPRPRPRPFVQPRP  -0.86
5. RRIRCRPPRLPRPRPRPIIIPRP  -0.816
6. RRIRCRPPRLPRPRPRPHIHPRP  -0.759
7. RRIRCRPPRLPRPRPRPHHYPRP  -0.685
8. RRIRCRPPRLPRPRPRPCTSPRP  -0.647
9. RRIRCRPPRLPRPRPRPGVNPRP  -0.584
10. RRIRCRPPRLPRPRPRPENMPRP  -0.57
11. RRIRCRPPRLPRPRPRPHAVPRP  -0.559
12. RRIRCRPPRLPRPRPRPFTAPRP  -0.553
13. RRIRCRPPRLPRPRPRPIQNPRP  -0.538
14. RRIRCRPPRLPRPRPRPIKDPRP  -0.533
15. RRIRCRPPRLPRPRPRPDWNPRP  -0.523
16. RRIRCRPPRLPRPRPRPFLVPRP  -0.511
17. RRIRCRPPRLPRPRPRPICMPRP  -0.491
18. RRIRCRPPRLPRPRPRPDDMPRP  -0.477
19. RRIRCRPPRLPRPRPRPFIDPRP  -0.464
20. RRIRCRPPRLPRPRPRPCIEPRP  -0.453
21. RRIRCRPPRLPRPRPRPFHCPRP  -0.451
22. RRIRCRPPRLPRPRPRPILNPRP  -0.431
23. RRIRCRPPRLPRPRPRPDVEPRP  -0.421
24. RRIRCRPPRLPRPRPRPFRTPRP  -0.421
25. RRIRCRPPRLPRPRPRPHIDPRP  -0.42
26. RRIRCRPPRLPRPRPRPGVQPRP  -0.419
27. RRIRCRPPRLPRPRPRPGIHPRP  -0.405
28. RRIRCRPPRLPRPRPRPHSFPRP  -0.404
29. RRIRCRPPRLPRPRPRPCYAPRP  -0.387
30. RRIRCRPPRLPRPRPRPEHNPRP  -0.377
31. RRIRCRPPRLPRPRPRPCHRPRP  -0.371
32. RRIRCRPPRLPRPRPRPHTMPRP  -0.371
33. RRIRCRPPRLPRPRPRPEIIPRP  -0.363
34. RRIRCRPPRLPRPRPRPCTAPRP  -0.361
35. RRIRCRPPRLPRPRPRPFPWPRP  -0.361
36. RRIRCRPPRLPRPRPRPDDTPRP  -0.36
37. RRIRCRPPRLPRPRPRPCWSPRP  -0.352
38. RRIRCRPPRLPRPRPRPCIMPRP  -0.336
39. RRIRCRPPRLPRPRPRPFGCPRP  -0.308
40. RRIRCRPPRLPRPRPRPCTGPRP  -0.307
41. RRIRCRPPRLPRPRPRPCGTPRP  -0.306
42. RRIRCRPPRLPRPRPRPEDYPRP  -0.304
43. RRIRCRPPRLPRPRPRPENNPRP  -0.303
44. RRIRCRPPRLPRPRPRPHPYPRP  -0.296
45. RRIRCRPPRLPRPRPRPDFQPRP  -0.294
46. RRIRCRPPRLPRPRPRPDINPRP  -0.294
47. RRIRCRPPRLPRPRPRPHSYPRP  -0.272
48. RRIRCRPPRLPRPRPRPIFLPRP  -0.257
49. RRIRCRPPRLPRPRPRPECKPRP  -0.255
50. RRIRCRPPRLPRPRPRPCIYPRP  -0.253
51. RRIRCRPPRLPRPRPRPHKAPRP  -0.253
52. RRIRCRPPRLPRPRPRPFCVPRP  -0.248
53. RRIRCRPPRLPRPRPRPHTDPRP  -0.246
54. RRIRCRPPRLPRPRPRPHVHPRP  -0.245
55. RRIRCRPPRLPRPRPRPGTHPRP  -0.243
56. RRIRCRPPRLPRPRPRPDYYPRP  -0.231
57. RRIRCRPPRLPRPRPRPHCEPRP  -0.226
58. RRIRCRPPRLPRPRPRPCLGPRP  -0.224
59. RRIRCRPPRLPRPRPRPHVQPRP  -0.224
60. RRIRCRPPRLPRPRPRPFQHPRP  -0.221
61. RRIRCRPPRLPRPRPRPEIHPRP  -0.217
62. RRIRCRPPRLPRPRPRPDPYPRP  -0.197
63. RRIRCRPPRLPRPRPRPIAFPRP  -0.195
64. RRIRCRPPRLPRPRPRPGKFPRP  -0.188
65. RRIRCRPPRLPRPRPRPDVSPRP  -0.185
66. RRIRCRPPRLPRPRPRPCPQPRP  -0.184
67. RRIRCRPPRLPRPRPRPFTDPRP  -0.182
68. RRIRCRPPRLPRPRPRPDSAPRP  -0.181
69. RRIRCRPPRLPRPRPRPGKCPRP  -0.173
70. RRIRCRPPRLPRPRPRPCQLPRP  -0.171
71. RRIRCRPPRLPRPRPRPCRTPRP  -0.168
72. RRIRCRPPRLPRPRPRPCQHPRP  -0.161
73. RRIRCRPPRLPRPRPRPEYYPRP  -0.159
74. RRIRCRPPRLPRPRPRPDGNPRP  -0.158
75. RRIRCRPPRLPRPRPRPFRSPRP  -0.142
76. RRIRCRPPRLPRPRPRPFSWPRP  -0.141
77. RRIRCRPPRLPRPRPRPIQPPRP  -0.137
78. RRIRCRPPRLPRPRPRPCTNPRP  -0.134
79. RRIRCRPPRLPRPRPRPDMCPRP  -0.13
80. RRIRCRPPRLPRPRPRPIDCPRP  -0.128
81. RRIRCRPPRLPRPRPRPIPMPRP  -0.108
82. RRIRCRPPRLPRPRPRPCQKPRP  -0.103
83. RRIRCRPPRLPRPRPRPFQWPRP  -0.0999
84. RRIRCRPPRLPRPRPRPCTWPRP  -0.0985
85. RRIRCRPPRLPRPRPRPHKTPRP  -0.0871
86. RRIRCRPPRLPRPRPRPHLGPRP  -0.0785
87. RRIRCRPPRLPRPRPRPEQKPRP  -0.0751
88. RRIRCRPPRLPRPRPRPFMCPRP  -0.0735
89. RRIRCRPPRLPRPRPRPFCKPRP  -0.0692
90. RRIRCRPPRLPRPRPRPHQGPRP  -0.0624
91. RRIRCRPPRLPRPRPRPIEVPRP  -0.0598
92. RRIRCRPPRLPRPRPRPHREPRP  -0.0514
93. RRIRCRPPRLPRPRPRPGVDPRP  -0.0475
94. RRIRCRPPRLPRPRPRPEHTPRP  -0.0466
95. RRIRCRPPRLPRPRPRPDWLPRP  -0.0386
96. RRIRCRPPRLPRPRPRPIETPRP  -0.0366
97. RRIRCRPPRLPRPRPRPEMNPRP  -0.036
98. RRIRCRPPRLPRPRPRPHKQPRP  -0.0354
99. RRIRCRPPRLPRPRPRPCRPPRP  -0.0339
100. RRIRCRPPRLPRPRPRPERHPRP  -0.0311
101. RRIRCRPPRLPRPRPRPDCIPRP  -0.027
102. RRIRCRPPRLPRPRPRPDPSPRP  -0.0265
103. RRIRCRPPRLPRPRPRPDDAPRP  -0.0228
104. RRIRCRPPRLPRPRPRPEDVPRP  -0.0129
105. RRIRCRPPRLPRPRPRPHPSPRP  -0.00515
106. RRIRCRPPRLPRPRPRPIECPRP  -0.00475
107. RRIRCRPPRLPRPRPRPIEHPRP  -0.00454
108. RRIRCRPPRLPRPRPRPEYRPRP  -0.00301
109. RRIRCRPPRLPRPRPRPERFPRP  0.00138
110. RRIRCRPPRLPRPRPRPCQSPRP  0.00299
111. RRIRCRPPRLPRPRPRPDRQPRP  0.00868
112. RRIRCRPPRLPRPRPRPDPLPRP  0.00869
113. RRIRCRPPRLPRPRPRPCHWPRP  0.0101
114. RRIRCRPPRLPRPRPRPDVQPRP  0.0161
115. RRIRCRPPRLPRPRPRPFEGPRP  0.0192
116. RRIRCRPPRLPRPRPRPFSCPRP  0.0218
117. RRIRCRPPRLPRPRPRPHTCPRP  0.0253
118. RRIRCRPPRLPRPRPRPEFEPRP  0.0293
119. RRIRCRPPRLPRPRPRPGCKPRP  0.0416
120. RRIRCRPPRLPRPRPRPIEQPRP  0.0493
121. RRIRCRPPRLPRPRPRPHQPPRP  0.0495
122. RRIRCRPPRLPRPRPRPFDHPRP  0.0529
123. RRIRCRPPRLPRPRPRPHVGPRP  0.0562
124. RRIRCRPPRLPRPRPRPGVMPRP  0.0691
125. RRIRCRPPRLPRPRPRPGQKPRP  0.0902
126. RRIRCRPPRLPRPRPRPHCQPRP  0.0911
127. RRIRCRPPRLPRPRPRPDQMPRP  0.101
128. RRIRCRPPRLPRPRPRPDRDPRP  0.108
129. RRIRCRPPRLPRPRPRPEAIPRP  0.117
130. RRIRCRPPRLPRPRPRPCGMPRP  0.119
131. RRIRCRPPRLPRPRPRPEAFPRP  0.13
132. RRIRCRPPRLPRPRPRPFQFPRP  0.133
133. RRIRCRPPRLPRPRPRPDEIPRP  0.146
134. RRIRCRPPRLPRPRPRPGIAPRP  0.201
135. RRIRCRPPRLPRPRPRPETWPRP  0.203
136. RRIRCRPPRLPRPRPRPGHQPRP  0.242
137. RRIRCRPPRLPRPRPRPHPQPRP  0.266
138. RRIRCRPPRLPRPRPRPEVQPRP  0.267
139. RRIRCRPPRLPRPRPRPETAPRP  0.308
140. RRIRCRPPRLPRPRPRPIPKPRP  0.326
141. RRIRCRPPRLPRPRPRPEWPPRP  0.331
142. RRIRCRPPRLPRPRPRPHPAPRP  0.34
143. RRIRCRPPRLPRPRPRPGPIPRP  0.367
144. RRIRCRPPRLPRPRPRPGIWPRP  0.485
145. RRIRCRPPRLPRPRPRPEPHPRP  0.489
146. RRIRCRPPRLPRPRPRPIAAPRP  0.549
147. RRIRCRPPRLPRPRPRPEPTPRP  0.628
148. RRIRCRPPRLPRPRPRPGDGPRP  0.646
149. RRIRCRPPRLPRPRPRPDNTPRP  0.881
150. RRIRCRPPRLPRPRPRPEPPPRP  2.06
